Data: the nanobody polyreactivity screen of Harvey et al. (2022)

Assay: yeast display, Sf9 membrane polyspecificity reagent, FACS + sequencing; frameworks hold sequencing errors
Summary of the method: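 A synthetic nanobody library was expressed on Saccharomyces cerevisiae BJ5465 by galactose induction for 36–48 hours. The library was stained for 1 hour at 4 °C with 10% biotinylated, detergent-solubilized Sf9 membrane reagent and enriched with streptavidin microbeads before FACS. Low and high (top ~1%) gates were set on anti-HA fluorescence for expression and streptavidin fluorescence for reagent binding, and each polyreactivity label reflects the gate of origin.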

Sequence	polyreactivity (PSR sort gate)
QVQLVESGAGLVQAGGSLRLSCAASGSTFKRYAMGWYRQAPGKERELVAAITWRGGSTYYADSVKGRFTISRDNAKNTVYLQMNSLKPEDTAVYYSATDYVYRYDYWGQGTQVTVSS	high polyreactivity
QVQLVESGAGLVQAGGSLRLSCAASGSTFTLNAMGWYRQAPGKERELVADISWSSGRTYYADSVKGRFTISRDNAKNTVDLQMNSLNPEDTAVYYCATDDFWIVKFYAYYPEFDYWGQVTQVTVSS	low polyreactivity
QVQLVESGAGLVQAGGSLRLSCAASGYTFSKNTMGWYRQAPGKERELVAAISRSGGSTYYADSVKGRFTISRDNAKNTFYLQMNSLKPEDTAVYYSAKRVSTYGFSGYDYWGQGTQVTVSS	high polyreactivity
QVQLVESGAGLVQAGGSLRLSCAGSGLTFRGNAMGCYRQAPGKERELVAAISWSDDTTDYADSVKGRFTISRDNAKNTVYLQMNSLKPEDTAVYYCAARRRIYRSMGFWGQGSQVTVSS	low polyreactivity
QVQLVESGAGLVQAGGSLRLSCAPSGIIFYWNTMAWYRQAPGKERELVAAISSRSGSTYYADSVKGRFTISRDNAKNTVYLQMISLKPEDTAVFYCAARYGYRYADKGTDYGYWGQGTQVTVSS	high polyreactivity
QVQLVESGAGLVQAGGSLRLSCAPSGRIFYYAMGWYRQAPGKERELVAAISSGGSTNYADSVKGRFTISRDNSKNSVYLQMNSLKPEDTAVYYCAADRYWRWPRRDYWGQGTQVTVSS	low polyreactivity
QVQLVESGAGLVQAGGSLRLSCAPSGSTFEDYAMGWYRQAPGKERELVAAISHIGGSTYYADSVKGRFTISRDNAKNTVYLQMNSLKPEDTAVYYCAKGGFSSKFDYWGQGTQVTVSS	low polyreactivity
QVQLVESGAGLVQAGGSLRLSCASSGTIFWGYAMGWYRQAPGKERELVAAITDSGGRTYYADSVKGRFTISRDNAKNTVYLQMNCLKPEDTAVYYCAADYYSQYYYYAVPDRDYWGQGTQVTVSS	low polyreactivity
QVQLVESGAGLVQAGGSLRLSSAASGLTFQTYAMGCYRQAPGKEREYVATISNGSSTYYADSVKGRFTISRDNAKNTVYFQMNILKPEDTAVYYCAKDYYYSRNQLYGHDYWGQGPQVTVSS	low polyreactivity
QVQLVESGAGLVQAGGSLRLTCAASGSNFYYYAMGWYRQAPGKERELVAAINGGDTYYADSVKGRFTISRDNAKNTVYLQMNSLKPEDTAVFYCAAEGVTVEWDYDYWGQGTQVTVSS	low polyreactivity
QVQLVESGAGLVQAGGSLRLTCAPSGSIFNIYSMGWYRQAPGKDRELVATITGIADSTYYADSVKGRFTISRDNANNTVYLQMNILKPEDTAFYYCAADIYVAEYDYWGQGTQVTVSS	low polyreactivity
QVQLVESGAGLVQAGGSLSLSCAASGRTIVTNAMGWYRQAPGKERELVAAINGRGDNTYYADSVKGRFTISRDNAKNTFYLQMNSLKPEDTAVYYCAVRRGYHSHTKYYYWGLGTQVTVSS	high polyreactivity
QVQLVESGAGLVQEVGSLRLSCAASGFTFGVNAMGSSRQAPGKERQFVASIRVRGCSTYYADSEKGRFTISRDNAKNTVYLQMNSLKPEDTAVYFCNAEVYVSSYATEMDYWGQGTQVTVSS	low polyreactivity
QVQLVESGARLVQAGGSLRLSCAASAYTLVGYAMGWYRQEPGKERELVADINFSGGRTYYADSVKGRFTISRDNAKNNVYLQMNSLKPEDTAVYYCNAAGALSWFYYGYDYWGQGTQVTLSS	low polyreactivity
QVQLVESGARLVQAGGSLRLSCDASGITFFAYAIGWYRQAQGKERELVAAISCNTGRTYYADSVKGRFTISRDNAKITVYLQMNSLKPEDTAVYYCAKRGVGVGYNYWGQGTQVTVSS	high polyreactivity
QVQLVESGEGLVQAGGSLRLICAASGRNFYSNAMVWYRQAPGKERELVAAMSYSGGSTYYADSVKGRFTISRDNAKNTVYLQMNSLKPEDTAVYYCAADTTYWPYWGTYVVYDYWGQGTQVTVSS	low polyreactivity
QVQLVESGEGLVQAGGSLRLSCAASRRIFEYYFMGWYSQAPGKERELVAAMNRRGTSTYYADSVKGRFTISRDNAKNTVYLQMNSLKPEDTAVYYCAAVDRDYARTTTYDYWGQGTEVTVSS	high polyreactivity
QVQLVESGGALGQAGGSLRLTSAASGITFPRYAIGWYRHAPGKEREMVATITRSGGGTYYADSVKGRFKISRDNAKNTVYLQMNSLKPEDTSVFYCAAGALQRGVYGYGFWGQGTQVTVSS	high polyreactivity
QVQLVESGGALLQAGGSLRLSCAASGRTFGYNAMGWYRQAPGKEREMVAAITYSGGRTSYADSVKGRFTISRDNAKNTVYLQMNSLKPEDTAVYYCAAQTRYYSGYNYWGQATQVTVSS	high polyreactivity
QVQLVESGGALVHAGGSLRLSCAASGSTFSGYDMVWYRQAPGKERELVAAISTYYADSVKGRFTISRDNAKTTVFLQMYCLKPEDRAVYYCAKPWGRYDYLGQGTQVTVSS	low polyreactivity
QVQLVESGGALVQAGGSLRLICAASGRIFQRYTKGWYRQAPGKERELVAAITYSGGRTYYADSVKGRFTISRDNAKNTVYLQMNSLKPEDTAVYYCYAAYFNWYTHVWNDYWGQGTQVTVSS	high polyreactivity
QVQLVESGGALVQAGGSLRLICAASGSIFGYNAMGWYRPSPGKEREFVASIRDRGGSTYYADSVKGRFTISRDNAKNTLYFQMKSLKQEDTAVYYGDAYWWGVSKRQYGYWGQGTQVTVSS	high polyreactivity

Sequence	polyreactivity (PSR sort gate)
QVQLVESGGALVQAGGSLRLICAASGSILYAYAMGWYRQAPGKERELVATNSYRGDRTRYADSVKGRFTISRDNAKNTVYLQMNSLKPEDTAVYSCAAKRKTSVPPVVKWSGYWGQGTQVTVSS	high polyreactivity
QVQLVESGGALVQAGGSLRLSCAASGFTFIPNAMGWYRQAPGKERELVAAIYSSGGTTYYADSVKGRFTISRDTAKNTVYLQMNSLKTEDTAVYYCARRVYGYYIPYNYWGQATQVTVSS	high polyreactivity
QVQLVESGGALVQAGGSLRLSCAASGIIFGRNGMGWYRQAPGKERELVAAISRGGGSTYYADSVKGRFTISRDNAKNTVYLQMNSLKPEDTAVYYCARRPTGIYDYWGQVTQVTVSS	high polyreactivity
QVQLVESGGALVQAGGSLRLSCAASGITFARNAMGWYRQAPGKERELVAVISTRGGRTYYADSVKGRFTISRDNAKNTVYLQMNSLKPEDTAVYYCAASPDPYWRRMDYWGQGTQVTVSS	high polyreactivity
QVQLVESGGALVQAGGSLRLSCAASGLTFTDYAMGWYRPAPGQERELVAGIWDGGSTYYADSVKGRFTISRDNAKNTVYLQMNSLKPEDTAVYYCAAEDWWTSFPEYYYWGQGTQVTVSS	high polyreactivity
QVQLVESGGALVQAGGSLRLSCAASGRIFGVNAMGWYRQAPGKERELVAAITSRGGSTYYADSVKGRFTISRDNAKNTVYLQMHSLTPEDTEVYYCRGWRYFTDKTYDYWGQGTQVTVSS	high polyreactivity
QVQLVESGGALVQAGGSLRLSCAASGRIFGYYAMGWYRQAPGKERELVAAITVSGTSTYYADSVKGRFTISRDNAKNTVYLQMNSLKPEDTAVYYCAARPRRRYYGYDSWGQGTQVTVSS	high polyreactivity
QVQLVESGGALVQAGGSLRLSCAASGRIFIVYAMRWYRQAPGKERELVASITSGASTNYADSVKGRFTISRDNAKNTVYLQMNSLKPEDTAVYDCNADGPGAYLSEFGYWGQGTQVTVSS	low polyreactivity
QVQLVESGGALVQAGGSLRLSCAASGRIFSRYVIRWYRQAPGKERELVAAISWNGGSTYYADSVKGRFRISRDNAKNTVYLQMNSLKPEDTAVYYCAARVRVTGTYYTKFDYWGQGTQVTVSS	high polyreactivity
QVQLVESGGALVQAGGSLRLSCAASGRIFSSYAMGWYRQEPGKERELVAAISRSGARTYYADSVKGRFTISRDNAKYSVYLQMNSLIAEDSAVSYCAAVTVSCYDYWGQGTQVTVSS	high polyreactivity
QVQLVESGGALVQAGGSLRLSCAASGRTFGHNAMGCSRQAPGKEREFVAAITYSGVRTFYADSVKGRFTISRDNAQNTVYLQMNSLKPEDTAVYYCATDWRRDYDYWGQGTQVTVSS	low polyreactivity
QVQLVESGGALVQAGGSLRLSCAASGRTFGVYAMGWYRQAPGKERELVAAISRRAGNTYYADSVKGRFTISRDNAKNTVYLQMNSLKTEDTAVYYCAADFSRQYGYWGQGTQVTVSS	high polyreactivity
QVQLVESGGALVQAGGSLRLSCAASGSIFDHNAMGWYRQAPGKERELVAAITWSGTSTYYADSVKGRFTISRDNAKNTVYLQMNSLIPEETAVYYCAAYLYGAVRAYPYRWGRYNYWGQGTQVTVSS	high polyreactivity
QVQLVESGGALVQAGGSLRLSCAASGSIFYNAMGWYRQAPGKERELVAAISWRGTRTYYADSVKGRFTISRDNAKNTVYLQMNSLKPEDTAVYYCNKDYKYGVAYTRYDYWGQGTQVTVSS	high polyreactivity
QVQLVESGGALVQAGGSLRLSCAASGSTFDDNAMGWYRQAPGKERELVASITYRGGSTYYADSVKGRFTISRDNAKNTVYLQMNSLKPEDTAVYYCAKGHYFKYDYWGQGTQVTVSS	low polyreactivity
QVQLVESGGALVQAGGSLRLSCAASGSTFNRNAMGWYRPAPGKERELVAAISSRGGSTFYADSVMGRFTISRDNATNTVYLQMNSLKPEDTAVYYCNALIVSSWVRYDYWRQGTQVTVSS	high polyreactivity
QVQLVESGGALVQAGGSLRLSCAASGSTFNRYAMGWYRQAPGKERELVAAISASGGSTYYADSVKGRFTISRDNAKNTVYLQMNSLKPEDTAVYYCATLHYVGQEHDYWGQGTQVTVSS	low polyreactivity
QVQLVESGGALVQAGGSLRLSCAASGSTFRRYAMGRYRQAPGKERELVAAISYGGGTTYYADSVKGRFTISRDNAKNTVYLQMNSLKPEDTAVYYCAARGPYGYVLLYYWGQGTQVTVSS	high polyreactivity
QVQLVESGGALVQAGGSLRLSCAASGSTIYQNAMGWYRQAPGKERELVAVISSGGSTYYADSVKGRFTISRDNAKNTVYLQMNSLKAEDTAVYYCAADRGTVSYLYSPRAVDYWGQGTQVTVSS	low polyreactivity
QVQLVESGGALVQAGGSLRLSCAASGSTYDSYSMGWYRKAPGKERELVAAITRRGTRTYYADSVKGRFTISRDNAKNTVYLQMNSLKREDTAVYYCAADRGYRLQSYGYWGQGTQVTVSS	high polyreactivity
QVQLVESGGALVQAGGSLRLSCAASGYTFSKNTMGWYRQAPGKEREFVAAINWSGGSTYYADSVKGRFTISRDNEKNTVYLQMNSLKPEDTAVYYCAARRGGRRGYDYWGQGTQVTVSS	high polyreactivity
